Assay [1] has as its target T1, Microfibril-associated glycoprotein 4 (human, UniProt P55083 22-255, intermolecular disulphide bond between C34 of two monomers; N-glycosylated at N87 and N137 (cryo-EM density)).
T1 chain: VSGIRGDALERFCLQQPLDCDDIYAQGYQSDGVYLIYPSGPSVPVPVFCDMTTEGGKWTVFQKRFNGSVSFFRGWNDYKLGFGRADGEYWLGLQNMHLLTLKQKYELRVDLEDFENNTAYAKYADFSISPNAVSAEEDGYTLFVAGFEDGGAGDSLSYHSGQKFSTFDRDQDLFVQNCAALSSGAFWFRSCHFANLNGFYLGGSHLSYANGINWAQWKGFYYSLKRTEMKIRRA
Briefly: SPR; -Ca2+.

Another assay addresses MFAP4_(C34S) (human, UniProt P55083 22-255, C34S). Briefly: SPR; +Ca2+.
Assay [2] addresses T1, Microfibril-associated glycoprotein 4. Briefly: SPR; Ca2+.

B1: latent transforming growth factor beta binding protein-4, long isoform (natural protein)
chain: ASPSPSPSQVVEVPGVPSRPASVAVCRCCPGQTSRRSRCIRAFCRVRSCQPKKCAGPQRCLNPVPAVPSPSPSVRKRQVSLNWQPLTLQEARALLKRRRPRGPGGRGLLRRRPPQRAPAGKAPVLCPLICHNGGVCVKPDRCLCPPDFAGKFCQLHSSGARPPAPAVPGLTRSVYTMPLANHRDDEHGVASMVSVHVEHPQEASVVVHQVERVSGPWEEADAEAVARAEAAARAEAAAPYTVLAQSAPREDGYSDASGFGYCFRELRGGECASPLPGLRTQEVCCRGAGLAWGVHDCQLCSERLGNSERVSAPDGPCPTGFERVNGSCEDVDECATGGRCQHGECANTRGGYTCVCPDGFLLDSSRSSCISQHVISEAKGPCFRVLRDGGCSLPILRNITKQICCCSRVGKAWGRGCQLCPPFGSEGFREICPAGPGYHYSASDLRYNTRPLGQEPPRVSLSQPRTLPATSRPSAGFLPTHRLEPRPEPRPDPRPGPELPLPSIPAWTGPEIPESGPSSGMCQRNPQVCGPGRCISRPSGYTCACDSGFRLSPQGTRCIDVDECRRVPPPCAPGRCENSPGSFRCVCGPGFRAGPRAAECLDVDECHRVPPPCDLGRCENTPGSFLCVCPAGYQAAPHGASCQDVDECTQSPGLCGRGACKNLPGSFRCVCPAGFRGSACEEDVDECAQEPPPCGPGRCDNTAGSFHCACPAGFRSRGPGAPCQDVDECARSPPPCTYGRCENTEGSFQCVCPMGFQPNTAGSECEDVDECENHLACPGQECVNSPGSFQCRTCPSGHHLHRGRCTDVDECSSGAPPCGPHGHCTNTEGSFRCSCAPGYRAPSGRPGPCADVNECLEGDFCFPHGECLNTDGSFACTCAPGYRPGPRGASCLDVDECSEEDLCQSGICTNTDGSFECICPPGHRAGPDLASCLDVDECRERGPALCGSQRCENSPGSYRCVRDCDPGYHAGPEGTCDDVDECQEYGPEICGAQRCENTPGSYRCTPACDPGYQPTPGGGCQDVDECRNRSFCGAHAVCQNLPGSFQCLCDQGYEGARDGRHCVDVNECETLQGVCGAALCENVEGSFLCVCPNSPEEFDPMTGRCVPPRTSAGTFPGSQPQAPASPVLPARPPPPPLPRRPSTPRQGPVGSGRRECYFDTAAPDACDNILARNVTWQECCCTVGEGWGSGCRIQQCPGTETAEYQSLCPHGRGYLAPSGDLSLRRDVDECQLFRDQVCKSGVCVNTAPGYSCYCSNGYYYHTQRLECIDNDECADEEPACEGGRCVNTVGSYHCTCEPPLVLDGSQRRCVSNESQSLDDNLGVCWQEVGADLVCSHPRLDRQATYTECCCLYGEAWGMDCALCPAQDSDDFEALCNVLRPPAYSPPRPGGFGLPYEYGPDLGPPYQGLPYGPELYPPPALPYDPYPPPPGPFARREAPYGAPRFDMPDFEDDGGPYGESEAPAPPGPGTRWPYRSRDTRRSFPEPEEPPEGGSYAGSLAEPYEELEAEECGILDGCTNGRCVRVPEGFTCRCFDGYRLDMTRMACVDINECDEAEAASPLCVNARCLNTDGSFRCICRPGFAPTHQPHHCAPARPRA
Take B1: the Kd was found to be 20 nM in assay [1] and 15 nM in the assay with MFAP4_(C34S).

B2: latent transforming growth factor beta binding protein-4, short isoform (natural protein)
chain: RLGERLRVRFTPVVCGLRCVHGPTGSRCTPTCAPRNATSVDSGAPGGAAPGGPGFRAFLCPLICHNGGVCVKPDRCLCPPDFAGKFCQLHSSGARPPAPAVPGLTRSVYTMPLANHRDDEHGVASMVSVHVEHPQEASVVVHQVERVSGPWEEADAEAVARAEAAARAEAAAPYTVLAQSAPREDGYSDASGFGYCFRELRGGECASPLPGLRTQEVCCRGAGLAWGVHDCQLCSERLGNSERVSAPDGPCPTGFERVNGSCEDVDECATGGRCQHGECANTRGGYTCVCPDGFLLDSSRSSCISQHVISEAKGPCFRVLRDGGCSLPILRNITKQICCCSRVGKAWGRGCQLCPPFGSEGFREICPAGPGYHYSASDLRYNTRPLGQEPPRVSLSQPRTLPATSRPSAGFLPTHRLEPRPEPRPDPRPGPELPLPSIPAWTGPEIPESGPSSGMCQRNPQVCGPGRCISRPSGYTCACDSGFRLSPQGTRCIDVDECRRVPPPCAPGRCENSPGSFRCVCGPGFRAGPRAAECLDVDECHRVPPPCDLGRCENTPGSFLCVCPAGYQAAPHGASCQDVDECTQSPGLCGRGACKNLPGSFRCVCPAGFRGSACEEDVDECAQEPPPCGPGRCDNTAGSFHCACPAGFRSRGPGAPCQDVDECARSPPPCTYGRCENTEGSFQCVCPMGFQPNTAGSECEDVDECENHLACPGQECVNSPGSFQCRTCPSGHHLHRGRCTDVDECSSGAPPCGPHGHCTNTEGSFRCSCAPGYRAPSGRPGPCADVNECLEGDFCFPHGECLNTDGSFACTCAPGYRPGPRGASCLDVDECSEEDLCQSGICTNTDGSFECICPPGHRAGPDLASCLDVDECRERGPALCGSQRCENSPGSYRCVRDCDPGYHAGPEGTCDDVDECQEYGPEICGAQRCENTPGSYRCTPACDPGYQPTPGGGCQDVDECRNRSFCGAHAVCQNLPGSFQCLCDQGYEGARDGRHCVDVNECETLQGVCGAALCENVEGSFLCVCPNSPEEFDPMTGRCVPPRTSAGTFPGSQPQAPASPVLPARPPPPPLPRRPSTPRQGPVGSGRRECYFDTAAPDACDNILARNVTWQECCCTVGEGWGSGCRIQQCPGTETAEYQSLCPHGRGYLAPSGDLSLRRDVDECQLFRDQVCKSGVCVNTAPGYSCYCSNGYYYHTQRLECIDNDECADEEPACEGGRCVNTVGSYHCTCEPPLVLDGSQRRCVSNESQSLDDNLGVCWQEVGADLVCSHPRLDRQATYTECCCLYGEAWGMDCALCPAQDSDDFEALCNVLRPPAYSPPRPGGFGLPYEYGPDLGPPYQGLPYGPELYPPPALPYDPYPPPPGPFARREAPYGAPRFDMPDFEDDGGPYGESEAPAPPGPGTRWPYRSRDTRRSFPEPEEPPEGGSYAGSLAEPYEELEAEECGILDGCTNGRCVRVPEGFTCRCFDGYRLDMTRMACVDINECDEAEAASPLCVNARCLNTDGSFRCICRPGFAPTHQPHHCAPARPRA
For B2, the Kd amounted to 22 nM in assay [1] and 19 nM with MFAP4_(C34S).

B3: fibulin-5 (natural protein)
chain: QAQCTNGFDLDRQSGQCLDIDECRTIPEACRGDMMCVNQNGGYLCIPRTNPVYRGPYSNPYSTPYSGPYPAAAPPLSAPNYPTISRPLICRFGYQMDESNQCVDVDECATDSHQCNPTQICINTEGGYTCSCTDGYWLLEGQCLDIDECRYGYCQQLCANVPGSYSCTCNPGFTLNEDGRSCQDVNECATENPCVQTCVNTYGSFICRCDPGYELEEDGVHCSDMDECSFSEFLCQHECVNQPGTYFCSCPPGYILLDDNRSCQDINECEHRNHTCNLQQTCYNLQGGFKCIDPIRCEEPYLRISDNRCMCPAENPGCRDQPFTILYRDMDVVSGRSVPADIFQMQATTRYPGAYYIFQIKSGNEGREFYMRQTGPISATLVMTRPIKGPREIQLDLEMITVNTVINFRGSSVIRLRIYVSQYPF
On to B3, for which, in assay [1], binding was characterised by a dissociation constant (Kd) of 3400 nM.

B4: fibulin-4 (natural protein)
chain: SASPQDSEEPDSYTECTDGYEWDPDSQHCRDVNECLTIPEACKGEMKCINHYGGYLCLPRSAAVINDLHGEGPPPPVPPAQHPNPCPPGYEPDDQDSCVDVDECAQALHDCRPSQDCHNLPGSYQCTCPDGYRKIGPECVDIDECRYRYCQHRCVNLPGSFRCQCEPGFQLGPNNRSCVDVNECDMGAPCEQRCFNSYGTFLCRCHQGYELHRDGFSCSDIDECSYSSYLCQYRCINEPGRFSCHCPQGYQLLATRLCQDIDECESGAHQCSEAQTCVNFHGGYRCVDTNRCVEPYIQVSENRCLCPASNPLCREQPSSIVHRYMTITSERSVPADVFQIQATSVYPGAYNAFQIRAGNSQGDFYIRQINNVSAMLVLARPVTGPREYVLDLEMVTMNSLMSYRASSVLRLTVFVGAYTF
B4 yielded a dissociation constant Kd with MFAP4_(C34S) of 90 nM.

B5: N-terminal half of LTBP4L (domain or fragment)
chain: ASPSPSPSQVVEVPGVPSRPASVAVCRCCPGQTSRRSRCIRAFCRVRSCQPKKCAGPQRCLNPVPAVPSPSPSVRKRQVSLNWQPLTLQEARALLKRRRPRGPGGRGLLRRRPPQRAPAGKAPVLCPLICHNGGVCVKPDRCLCPPDFAGKFCQLHSSGARPPAPAVPGLTRSVYTMPLANHRDDEHGVASMVSVHVEHPQEASVVVHQVERVSGPWEEADAEAVARAEAAARAEAAAPYTVLAQSAPREDGYSDASGFGYCFRELRGGECASPLPGLRTQEVCCRGAGLAWGVHDCQLCSERLGNSERVSAPDGPCPTGFERVNGSCEDVDECATGGRCQHGECANTRGGYTCVCPDGFLLDSSRSSCISQHVISEAKGPCFRVLRDGGCSLPILRNITKQICCCSRVGKAWGRGCQLCPPFGSEGFREICPAGPGYHYSASDLRYNTRPLGQEPPRVSLSQPRTLPATSRPSAGFLPTHRLEPRPEPRPDPRPGPELPLPSIPAWTGPEIPESGPSSGMCQRNPQVCGPGRCISRPSGYTCACDSGFRLSPQGTRCIDVDECRRVPPPCAPGRCENSPGSFRCVCGPGFRAGPRAAECLDVDECHRVPPPCDLGRCENTPGSFLCVCPAGYQAAPHGASCQDVDECTQSPGLCGRGACKNLPGSFRCVCPAGFRGSACEEDVDECAQEPPPCGPGRCDNTAGSFHCACPAGFRSRGPGAPCQ
For the molecule B5, binding in assay [2] was characterised by a dissociation constant (Kd) of 19 nM.

B6: recombinant N-terminal half of fibrillin-1 (domain or fragment)
chain: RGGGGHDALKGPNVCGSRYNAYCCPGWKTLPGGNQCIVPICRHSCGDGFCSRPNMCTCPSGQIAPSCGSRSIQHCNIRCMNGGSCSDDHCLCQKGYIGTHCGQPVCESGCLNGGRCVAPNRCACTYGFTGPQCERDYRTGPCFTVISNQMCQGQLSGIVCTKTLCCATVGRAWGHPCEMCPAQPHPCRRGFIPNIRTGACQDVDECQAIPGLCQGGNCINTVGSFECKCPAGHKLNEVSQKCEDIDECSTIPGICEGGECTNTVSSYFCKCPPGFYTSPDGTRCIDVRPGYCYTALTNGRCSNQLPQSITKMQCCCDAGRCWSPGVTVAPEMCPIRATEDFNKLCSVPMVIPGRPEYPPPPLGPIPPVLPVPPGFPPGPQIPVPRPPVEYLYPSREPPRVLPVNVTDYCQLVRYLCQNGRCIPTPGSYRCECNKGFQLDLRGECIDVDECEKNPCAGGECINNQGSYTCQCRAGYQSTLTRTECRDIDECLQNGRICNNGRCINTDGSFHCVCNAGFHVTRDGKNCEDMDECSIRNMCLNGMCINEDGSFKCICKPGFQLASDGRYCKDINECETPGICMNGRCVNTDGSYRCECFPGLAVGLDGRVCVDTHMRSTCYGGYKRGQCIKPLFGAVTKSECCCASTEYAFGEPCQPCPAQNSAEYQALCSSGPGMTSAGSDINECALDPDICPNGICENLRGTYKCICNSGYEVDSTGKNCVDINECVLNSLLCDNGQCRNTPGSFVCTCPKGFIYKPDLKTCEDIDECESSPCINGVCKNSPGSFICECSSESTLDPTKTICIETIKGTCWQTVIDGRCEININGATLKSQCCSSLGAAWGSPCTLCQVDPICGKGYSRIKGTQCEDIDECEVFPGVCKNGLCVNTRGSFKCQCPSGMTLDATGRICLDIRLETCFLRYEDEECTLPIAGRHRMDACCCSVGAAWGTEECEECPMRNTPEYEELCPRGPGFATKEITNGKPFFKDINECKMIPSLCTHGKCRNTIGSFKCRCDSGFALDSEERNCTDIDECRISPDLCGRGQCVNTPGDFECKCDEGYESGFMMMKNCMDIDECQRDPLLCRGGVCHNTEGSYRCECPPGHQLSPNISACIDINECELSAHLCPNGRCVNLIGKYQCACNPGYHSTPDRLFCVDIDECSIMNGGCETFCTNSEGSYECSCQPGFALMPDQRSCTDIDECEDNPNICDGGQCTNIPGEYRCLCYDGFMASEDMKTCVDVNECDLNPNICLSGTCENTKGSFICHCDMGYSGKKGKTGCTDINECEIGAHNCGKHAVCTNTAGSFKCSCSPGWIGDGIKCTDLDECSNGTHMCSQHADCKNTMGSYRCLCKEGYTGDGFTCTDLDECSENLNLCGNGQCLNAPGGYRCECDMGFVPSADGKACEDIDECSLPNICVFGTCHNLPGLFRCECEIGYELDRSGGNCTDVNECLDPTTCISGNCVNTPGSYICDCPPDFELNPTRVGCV
Regarding B6, the affinity in the assay with MFAP4_(C34S), expressed as Kd, was 1.5 nM.

B7: recombinant human tropoelastin (natural protein)
chain: GGVPGAIPGGVPGGVFYPGAGLGALGGGALGPGGKPLKPVPGGLAGAGLGAGLGAFPAVTFPGALVPGGVADAAAAYKAAKAGAGLGGVPGVGGLGVSAGAVVPQPGAGVKPGKVPGVGLPGVYPGGVLPGARFPGVGVLPGVPTGAGVKPKAPGVGGAFAGIPGVGPFGGPQPGVPLGYPIKAPKLPGGYGLPYTTGKLPYGYGPGGVAGAAGKAGYPTGTGVGPQAAAAAAAKAAAKFGAGAAGVLPGVGGAGVPGVPGAIPGIGGIAGVGTPAAAAAAAAAAKAAKYGAAAGLVPGGPGFGPGVVGVPGAGVPGVGVPGAGIPVVPGAGIPGAAVPGVVSPEAAAKAAAKAAKYGARPGVGVGGIPTYGVGAGGFPGFGVGVGGIPGVAGVPGVGGVPGVGGVPGVGISPEAQAAAAAKAAKYGAAGAGVLGGLVPGAPGAVPGVPGTGGVPGVGTPAAAAAKAAAKAAQFGLVPGVGVAPGVGVAPGVGVAPGVGLAPGVGVAPGVGVAPGVGVAPGIGPGGVAAAAKSAAKVAAKAQLRAAAGLGAGIPGLGVGVGVPGLGVGAGVPGLGVGAGVPGFGAGADEGVRRSLSPELREGDPSSSQHLPSTPSSPRVPGALAAAKAAKYGAAVPGVLGGLGALGGVGIPGGVVGAGPAAAAAAAKAAAKAAQFGLVGAAGLGGLGVGGLGVPGVGGLGGIPPAAAAKAAKYGAAGLGGVLGGAGQFPLGGVAARPGFGLSPIFPGGACLGKACGRKRK
In the assay with MFAP4_(C34S), B7 registered a Kd of 38 nM.

B8: fibrillin-1 centre region fragment rF1M (domain or fragment)
chain: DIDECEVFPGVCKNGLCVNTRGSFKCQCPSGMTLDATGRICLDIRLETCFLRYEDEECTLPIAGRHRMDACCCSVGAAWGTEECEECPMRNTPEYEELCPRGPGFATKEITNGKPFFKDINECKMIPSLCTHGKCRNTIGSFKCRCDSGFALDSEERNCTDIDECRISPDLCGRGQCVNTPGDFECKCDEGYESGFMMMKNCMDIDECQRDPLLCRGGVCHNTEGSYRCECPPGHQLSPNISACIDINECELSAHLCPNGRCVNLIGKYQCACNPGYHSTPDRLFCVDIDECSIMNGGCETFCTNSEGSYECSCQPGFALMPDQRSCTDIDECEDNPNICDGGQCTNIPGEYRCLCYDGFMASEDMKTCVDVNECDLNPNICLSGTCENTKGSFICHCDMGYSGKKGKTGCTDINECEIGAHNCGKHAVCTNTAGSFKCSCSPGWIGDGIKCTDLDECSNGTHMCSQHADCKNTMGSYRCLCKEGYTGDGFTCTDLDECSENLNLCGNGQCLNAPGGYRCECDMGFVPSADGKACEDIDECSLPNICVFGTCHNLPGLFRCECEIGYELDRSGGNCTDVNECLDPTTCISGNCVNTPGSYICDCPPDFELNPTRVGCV
modifications: limits not printed (cited paper); approximate centre region, set at calcium-binding EGF domain boundaries from the domain before TB4 to the one before TB5; Ca2+ bound, HEK-type glycosylation and disulphides likely
In the assay with MFAP4_(C34S), B8 came in with a Kd of 1 nM.

For the origin of these results see PMC11091212 (2024).
